Assay results published in publication PMC2918688 (Molecular immunology, 2010).

B2: purified cJun (natural protein, human, UniProt P05412 1-331, looked up)
chain: MTAKMETTFYDDALNASFLPSESGPYGYSNPKILKQSMTLNLADPVGSLKPHLRAKNSDLLTSPDVGLLKLASPELERLIIQSSNGHITTTPTPTQFLCPKNVTDEQEGFAEGFVRALAELHSQNTLPSVTSAAQPVNGAGMVAPAVASVAGGSGSGGFSASLHSEPPVYANLSNFNPGALSSGGGAPSYGAAGLAFPAQPQQQQQPPHHLPQQMPVQHPRLQALKEEPQTVPEMPGETPPLSPIDMESQERIKAERKRMRNRIAASKCRKRKLERIARLEEKVKTLKAQNSELASTANMLREQVAQLKQKVMNHVNSGCQLMLTQQLQTF

Tests used:
Experiment in all cases: pull-down
purified cJun = target: B2
GST-NFATc2 (full-length) = target: T1, GST-NFATc2 (full-length) (human, UniProt Q13469-2 1-921)
T1 sequence (looked up): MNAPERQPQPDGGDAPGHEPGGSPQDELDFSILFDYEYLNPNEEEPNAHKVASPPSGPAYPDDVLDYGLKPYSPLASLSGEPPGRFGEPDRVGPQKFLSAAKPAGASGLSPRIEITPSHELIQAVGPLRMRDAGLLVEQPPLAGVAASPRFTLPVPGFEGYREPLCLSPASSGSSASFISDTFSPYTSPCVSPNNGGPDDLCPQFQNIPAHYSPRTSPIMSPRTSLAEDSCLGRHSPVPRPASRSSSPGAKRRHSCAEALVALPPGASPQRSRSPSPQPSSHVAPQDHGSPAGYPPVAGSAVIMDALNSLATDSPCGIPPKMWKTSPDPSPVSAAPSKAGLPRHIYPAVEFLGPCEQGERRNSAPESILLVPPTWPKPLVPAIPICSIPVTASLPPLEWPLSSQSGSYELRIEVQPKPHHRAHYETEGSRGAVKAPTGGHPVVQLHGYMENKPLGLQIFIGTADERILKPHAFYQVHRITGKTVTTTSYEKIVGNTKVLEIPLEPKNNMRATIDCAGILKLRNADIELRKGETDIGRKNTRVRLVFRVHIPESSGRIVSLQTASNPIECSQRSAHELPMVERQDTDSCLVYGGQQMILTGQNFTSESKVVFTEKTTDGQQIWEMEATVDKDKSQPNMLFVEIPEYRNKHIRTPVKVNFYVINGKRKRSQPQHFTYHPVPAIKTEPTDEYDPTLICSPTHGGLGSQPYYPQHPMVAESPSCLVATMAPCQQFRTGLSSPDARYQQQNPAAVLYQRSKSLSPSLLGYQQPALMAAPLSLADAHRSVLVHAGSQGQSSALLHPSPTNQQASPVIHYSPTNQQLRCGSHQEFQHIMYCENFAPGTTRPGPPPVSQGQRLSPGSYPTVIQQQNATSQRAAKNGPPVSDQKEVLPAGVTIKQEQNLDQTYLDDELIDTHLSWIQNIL

HA-NFATc2 = target: T2, HA-NFATc2 (human, UniProt Q13469-2 1-921)
T2 sequence (looked up): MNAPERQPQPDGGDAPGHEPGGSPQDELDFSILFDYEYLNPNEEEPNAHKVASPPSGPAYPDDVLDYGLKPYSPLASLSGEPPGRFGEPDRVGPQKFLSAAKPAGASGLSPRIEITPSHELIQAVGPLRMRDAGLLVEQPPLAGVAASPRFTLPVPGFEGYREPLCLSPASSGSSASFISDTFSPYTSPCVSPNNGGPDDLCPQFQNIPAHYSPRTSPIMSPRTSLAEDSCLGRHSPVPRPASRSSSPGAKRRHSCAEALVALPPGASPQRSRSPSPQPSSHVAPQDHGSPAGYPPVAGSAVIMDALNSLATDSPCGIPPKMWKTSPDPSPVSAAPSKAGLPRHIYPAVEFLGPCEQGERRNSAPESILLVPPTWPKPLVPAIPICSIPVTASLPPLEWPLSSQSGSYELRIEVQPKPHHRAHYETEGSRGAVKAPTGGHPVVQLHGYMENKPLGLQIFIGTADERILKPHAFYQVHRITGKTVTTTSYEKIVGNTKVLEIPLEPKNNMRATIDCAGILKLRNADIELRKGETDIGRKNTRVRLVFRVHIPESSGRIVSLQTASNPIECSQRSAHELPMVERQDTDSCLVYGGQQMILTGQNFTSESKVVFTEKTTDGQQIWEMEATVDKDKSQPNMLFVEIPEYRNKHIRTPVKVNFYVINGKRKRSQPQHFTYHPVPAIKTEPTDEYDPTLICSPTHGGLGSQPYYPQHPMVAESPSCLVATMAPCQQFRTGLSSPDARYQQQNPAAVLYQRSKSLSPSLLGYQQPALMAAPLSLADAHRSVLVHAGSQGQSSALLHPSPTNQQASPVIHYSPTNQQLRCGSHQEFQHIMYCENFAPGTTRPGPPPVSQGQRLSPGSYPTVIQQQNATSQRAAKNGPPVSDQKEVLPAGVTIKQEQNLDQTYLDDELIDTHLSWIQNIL

B1: GST-NFATc2(688–921) (domain or fragment, human, UniProt Q13469-2 688-921, looked up)
chain: EYDPTLICSPTHGGLGSQPYYPQHPMVAESPSCLVATMAPCQQFRTGLSSPDARYQQQNPAAVLYQRSKSLSPSLLGYQQPALMAAPLSLADAHRSVLVHAGSQGQSSALLHPSPTNQQASPVIHYSPTNQQLRCGSHQEFQHIMYCENFAPGTTRPGPPPVSQGQRLSPGSYPTVIQQQNATSQRAAKNGPPVSDQKEVLPAGVTIKQEQNLDQTYLDDELIDTHLSWIQNIL
binding result (purified cJun): binds

B2
binding result (GST-NFATc2 (full-length)): binds

B3: GST-cJun(1–317) (domain or fragment, human, UniProt P05412 1-317, looked up)
chain: MTAKMETTFYDDALNASFLPSESGPYGYSNPKILKQSMTLNLADPVGSLKPHLRAKNSDLLTSPDVGLLKLASPELERLIIQSSNGHITTTPTPTQFLCPKNVTDEQEGFAEGFVRALAELHSQNTLPSVTSAAQPVNGAGMVAPAVASVAGGSGSGGFSASLHSEPPVYANLSNFNPGALSSGGGAPSYGAAGLAFPAQPQQQQQPPHHLPQQMPVQHPRLQALKEEPQTVPEMPGETPPLSPIDMESQERIKAERKRMRNRIAASKCRKRKLERIARLEEKVKTLKAQNSELASTANMLREQVAQLKQKVMNHVN
binding result (HA-NFATc2): binds
